Target: extracellular domain (residues Q18 to S740) of human ACE2 fused with human IgG1 Fc (human) (UniProt Q9BYF1)
Assay: BLI

Chain of UniProt Q9BYF1 (Q9BYF1 18-740): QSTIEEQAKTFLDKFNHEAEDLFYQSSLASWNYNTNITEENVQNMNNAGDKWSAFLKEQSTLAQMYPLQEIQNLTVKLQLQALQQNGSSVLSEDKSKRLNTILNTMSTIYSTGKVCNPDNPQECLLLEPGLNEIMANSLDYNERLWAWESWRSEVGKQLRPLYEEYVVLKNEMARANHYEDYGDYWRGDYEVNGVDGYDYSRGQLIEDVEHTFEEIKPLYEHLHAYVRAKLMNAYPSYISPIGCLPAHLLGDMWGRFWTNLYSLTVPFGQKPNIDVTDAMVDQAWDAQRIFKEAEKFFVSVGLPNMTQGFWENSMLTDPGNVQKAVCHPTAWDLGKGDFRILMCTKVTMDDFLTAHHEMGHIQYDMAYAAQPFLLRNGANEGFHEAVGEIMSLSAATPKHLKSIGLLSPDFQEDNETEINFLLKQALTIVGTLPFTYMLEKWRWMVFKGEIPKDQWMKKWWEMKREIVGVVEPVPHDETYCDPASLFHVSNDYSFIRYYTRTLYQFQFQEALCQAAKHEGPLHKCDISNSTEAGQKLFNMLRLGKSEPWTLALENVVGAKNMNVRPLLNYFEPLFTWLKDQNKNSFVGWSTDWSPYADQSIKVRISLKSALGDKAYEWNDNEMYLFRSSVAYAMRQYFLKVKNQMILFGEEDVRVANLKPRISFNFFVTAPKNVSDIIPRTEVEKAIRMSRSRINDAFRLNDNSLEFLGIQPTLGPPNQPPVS

Substance “yeast-derived monomeric RBD of SARS-CoV-2 (residues 320-550, C-terminal 6x His-tag) (domain or fragment)” has a Kd of 9.07 nM, a koff of 0.00239 s⁻¹ and a kon of 264000 M⁻¹ s⁻¹.

— article PMC8372230
